The results in this text go back to US20200055939A1 (Genentech, published 2020).

What all share (experiment): SPR, Fab over captured MICA*008.mIgG2a Ala variant; KD relative to wild type
A general note: SPR reads the build-up and loss of mass on a sensor chip optically.

In one assay the target is T1, E277A.
T1 construct: % monomer 81.58; also called MICA*008.mIgG2a E277A
T1 chain: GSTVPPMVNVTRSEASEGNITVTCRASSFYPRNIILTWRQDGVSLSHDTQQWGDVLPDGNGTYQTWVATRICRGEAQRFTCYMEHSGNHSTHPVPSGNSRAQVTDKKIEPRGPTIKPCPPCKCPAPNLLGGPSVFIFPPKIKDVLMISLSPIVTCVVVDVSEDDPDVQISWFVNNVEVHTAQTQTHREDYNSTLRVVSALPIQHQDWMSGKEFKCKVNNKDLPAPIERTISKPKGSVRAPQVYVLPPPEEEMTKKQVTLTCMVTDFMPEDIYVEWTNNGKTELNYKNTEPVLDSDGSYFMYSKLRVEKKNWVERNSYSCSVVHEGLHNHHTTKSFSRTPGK

In a further assay the target is T2, E276A.
T2 construct: % monomer 86.14; also called MICA*008.mIgG2a E276A
T2 chain: T1 chain with E75A, A76E

In another assay the target is T3, H290A.
T3 construct: % monomer 90.37; also called MICA*008.mIgG2a H290A
T3 chain: T1 chain with A76E, H89A

The next assay concerns the target T4, E285A.
T4 construct: % monomer 83.78; also called MICA*008.mIgG2a E285A
T4 chain: T1 chain with A76E, E84A

The target in the next assay is T5, T292A.
T5 construct: % monomer 80.56; also called MICA*008.mIgG2a T292A
T5 chain: T1 chain with A76E, T91A

The target of another assay is T6, T238A.
T6 construct: % monomer 96; also called MICA*008.mIgG2a T238A
T6 chain: T1 chain with T37A, A76E

The next assay deals with T7, S297A.
T7 construct: % monomer 89.24; also called MICA*008.mIgG2a S297A
T7 chain: T1 chain with A76E, S96A

Numbering of substitutions follows the chain as printed.

B1: 2E5.2.3 Fab (Fab, V domains shown)
VH: QGQMQQSGAELVKPGASVKLSCKTSGFTFSDNYISWLKQKPGQSLEWIAWIYAGTGGTSYNQKFTAKAQLTVDTSSSTAYMQFSSLTTEDSAIYYCARHDYYGTSGAWFAYWGQGTLVTVSA
VL: DVLMTQTPLSLPVSLGDQASLSCRSSQNIVHINGNTYLEWYLQKPGQSPKLLIYKVSNRFSGVPDRFSGSGSGTDFTLKISRVEAEDLGVYYCFQGSHVPWTFGGGTKVEIK
As for B1, the fold-decrease in affinity with E277A came to 1.1; with E276A it was 1.2; with H290A, 0.8; with E285A it was 0.9; with T292A it was 1.3; with T238A it was 1.3. Moreover, in the assay with S297A, the fold-decrease in affinity is 1.2.

B2: 6F8.7 Fab (Fab, V domains shown)
VH: DVQLQGSGPGLVKPSQSLSLTCSVTGYSITNDYYWNWIRQFPGNKLEWMGFISFGGSNNYNPSLKNRISITRDTSKNQFFLKLSSVTTEDTATYYCARYDGRGAWFAYWAQGTLVTVSA
VL: DIQMTQSPASLSASVGETVTITCRASGNIHNYLAWYQQKQGKSPQLLVYDAITLADGVPSRFSGSGSGTQYSLKINSLQPEDFGNYYCQHFWSFPLTFGAGTKVEIK
Turning to B2, the fold-decrease in affinity stood at 2.7 with E277A; 4.3 with E276A; 8.4 with H290A; 3.9 in the assay with E285A; 1.7 with T292A; 0.1 with T238A. In addition, the fold-decrease in affinity with S297A is 1.

B3: 7D4.6 Fab (Fab, V domains shown)
VH: DVQLQESGPGLVKPSQSLSLTCTVTGYSITSDYAWNWIRQFPRNKLEWMGYINYSGTTNYNPSLKSRISITRDTSKNQFFLQLISVTTEDTATYYCSYYRYDGAWFPYWGQGTLVTVSA
VL: B2 VL with D50N, T53M, G64A, N85S
With B3, the fold-decrease in affinity with E277A came out at 1.3; with E276A it was 0.7; with H290A it was 8.8; in the assay with E285A, 7.9; in the assay with T292A, 2.1; with T238A, 0.1. Moreover, in the assay with S297A, the fold-decrease in affinity was 1.1.

B4: 1D5 Fab (Fab, V domains shown)
VH: EIQLQQSGPELVKPGASVKVSCKASGYAFTSQNIYWVKQSHGKSLEWIGYIEPYNVVPMYNPKFKGKATLTVDKSSSSAYIHLNSLTSEDSAIYYCARSGSSNFDYWGQGTTLTVSS
VL: EIILTQSPTTMAASPGEKITITCSASSSISSHYLHWYQQKSGFSPKLLIYRTSNLASGVPARFSGSGSGTSYSLTIGTMEAEDVATYYCQQGSSLPLTFGAGTKVEIK
notes: Expressed in E. coli as chimera of murine variable and human constant domains; not shown: human IgG1 CH1 constant domain; human kappa CL constant domain
Regarding B4, the fold-decrease in affinity was 1.9 with E277A, 22 in the assay with E276A, 0.4 with T238A and 0.05 in the assay with S297A.
